Measured values as given in publication PMC5715112 (2017).

B1: VH59 fused to the VP16 activation domain (pEF-VP16, CHO cells) / GAL4 DNA binding domain (DBD)-LEDGF IBD fusion (pM1, CHO cells) [not stated] (parent complex)
chain 1: EVQLLESGGGLVQPGGSLRLSCAASGFTFSTFSMNWVRQAPGKGLEWVSYISRTSKTIYYADSVKGRFTISRDNSKNTLYLQMNSLRAEDTAVYYCARGGWALGDEIPSSFLEFDYWGQGTLVTVS
chain 2: ETSMDSRLQRIHAEIKNSLKIDNLDVNRCIEALDELASLQVTMQQAQKHTEMITTLKKIRRFKVSQVIMEKSTMLYNKFKNMFLVGE

Variants of: B1
Test: mammalian two-hybrid luciferase reporter assay in CHO cells; 48 h after transfection; Firefly/Renilla luciferase; n = 3; read off a plot

chain 1 P108A and chain 1 S110A are the same in response: about 0.04 for the first, about 0.04 for the second.

Going from chain 1 L112A to chain 1 F111A, the response falls from about 0.05 to about 0.04.

With chain 1 S109A the response was about 0.46.

Variants of: B1
Test: as above
Remark: another data set of the same source

chain 1 Y95A and chain 1 D115A are the same in response: about 0.04 for the first, about 0.04 for the second.

First: chain 1 W117A
Second: chain 1 L45A
The response of the first is lower: about 0.04 for the first, about 1.2 for the second.

chain 1 Y116A was tested, and the response was about 0.92.

Variants of: B1
Test: mammalian two-hybrid luciferase reporter assay in CHO cells; 48 h after transfection; Firefly luciferase normalised to Renilla; read off a plot

First: chain 2 I21A
Second: chain 2 V64A
The response of the first is lower: about 0.05 for the first, about 0.12 for the second.

Going from chain 2 D22A to chain 2 K63A, the response falls from about 0.79 to about 0.35.

Going from chain 2 R61A to chain 2 L24A, the response falls from about 2 to about 0.02.

First: chain 2 K58A
Second: chain 2 L19A
The response of the first is higher: about 0.09 for the first, about 0.08 for the second.

Going from chain 2 K20A to chain 2 F62A, the response falls from about 0.71 to about 0.05.
